The record followed here is PMC5455435, “Fibrin Hydrogel Based Bone Substitute Tethered with BMP-2 and BMP-2/7 Heterodimers” (Materials, 2015).

Data set [1] concerns the molecule itself. Description: SEC; purified monomers refolded at 4 °C in 50 mM Tris pH 8.5, 1 M NaCl, 5 mM EDTA, 2% CHAPS, 2 mM reduced and 1 mM oxidized glutathione; after reverse phase chromatography the dimer was isolated on a HiLoad Superdex 75 column.
Data set [2] deals with T1, BMP-7 (human, UniProt P18075 293-431).
T1 construct: Non-glycosylated (made in E. coli); also called BMP-7 monomer; BMP-7 chain of TG-BMP-2/BMP-7
T1 sequence (looked up): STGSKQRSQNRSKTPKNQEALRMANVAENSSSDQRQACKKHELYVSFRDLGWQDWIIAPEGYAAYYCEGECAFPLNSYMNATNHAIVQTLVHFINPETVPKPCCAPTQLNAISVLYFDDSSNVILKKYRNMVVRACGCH
Description: non-reduced Western blot with two-colour infrared detection; TG-BMP-2 and BMP-7 monomers combined in equimolar amounts and refolded together, heterodimer purified by heparin affinity, size exclusion and reverse phase chromatography; non-reduced blot probed with anti-BMP-2/4 (700 nm) and anti-BMP-7 (800 nm); overlapping bands indicate the heterodimer. The following applies: both partners purified. (In general: Immunoblotting shows a protein as a band on a membrane.)

B1: BMP-2 (ligand, human, UniProt P12643 283-396, looked up)
chain: QAKHKQRKRLKSSCKRHPLYVDFSDVGWNDWIVAPPGYHAFYCHGECPFPLADHLNSTNHAIVQTLVNSVNSKIPKACCVPTELSAISMLYLDENEKVVLKNYQDMVVEGCGCR
notes: bone morphogenetic protein 2 (BMP-2), human, active BMP-2 protein only; also called BMP-2 homodimer; regular BMP-2 without the TG site
Turning to B1, the binding result in data set [1] is reported as “binds”.

B2: TG-BMP-2 (ligand, human)
chain: MNQEQVSPLPVELPLIKMKPHQAKHKQRKRLKSSCKRHPLYVDFSDVGWNDWIVAPPGYHAFYCHGECPFPLADHLNSTNHAIVQTLVNSVNSKIPKACCVPTELSAISMLYLDENEKVVLKNYQDMVVEGCGCR
notes: One chain is written; also called engineered BMP-2; TG-BMP-2 monomer
Consider B2, for which the binding result in data set [1] and in data set [2] was “binds” each time.
